Test results: the supplement of paper PMC6757056
± gives the standard deviation of the averaged measurements.

B1: library; a variant is named by its letters at N, in order (parent)
chain: GCUGUCACCGGUGCUUGGUACGUUAUAUUCAGCCGGUCUGAUGAGUCUNNNNNNAGACGAAACAGC

Legend:
(6R,S)-folinic acid [1] = variants of: B1; assay: normalized RNA/DNA level without ligand (relative to sTRSVctl = 100) (log10 (% of sTRSVctl)); HEK293T overexpressing SLC46A1; higher = less ribozyme self-cleavage, higher mRNA level; conditions: without (6R,S)-folinic acid; ligand present: no
How it was run: (§1)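 Library plasmids encoding reporter-linked ribozyme switches (mCherry, or eGFP for some folinic acid experiments) were transfected into HEK293T at 4 µg per 6-well well. Ligand, when used, was added 1 h before transfection. Total RNA was extracted with EDTA 72 h later, then reverse-transcribed, amplified, barcoded and sequenced. RNA level was RNA reads over DNA reads, divided by a spiked-in non-cleaving control (or the top 25 sequences), ×100, log10; only sequences with ≥100 DNA reads were kept.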

(6R,S)-folinic acid [2] = variants of: B1; assay: normalized RNA/DNA level with ligand (relative to sTRSVctl = 100) (log10 (% of sTRSVctl)); HEK293T overexpressing SLC46A1; ligand concentration (+) RNA-Seq: 6 mM; higher = less ribozyme self-cleavage, higher mRNA level; conditions: with (6R,S)-folinic acid; ligand present: yes
How it was run: as §1

Variant | normalized RNA/DNA level without ligand (log10) ((6R,S)-folinic acid [1]) | normalized RNA/DNA level with ligand (log10) ((6R,S)-folinic acid [2])
GACGUU | 2 ± 0.022 | 2.01 ± 0.045
GACGUC | 2.065 ± 0.0072 | 2.02 ± 0.054
CACAGA | 2.03 ± 0.015 | 2.01 ± 0.022
CACAGC | 1.978 ± 0.0044 | 1.96 ± 0.021
CACAGG | 1.95 ± 0.026 | 2 ± 0.048
CACAGU | 1.999 ± 0.017 | 2 ± 0.077
UACUGU | 1.936 ± 0.0083 | 1.98 ± 0.02
UACUGA | 1.9244 ± 0.0015 | 2.03 ± 0.034
UACAUC | 2.0657 ± 0.0019 | 2.04 ± 0.032
UACAUU | 2.005 ± 0.0053 | 1.99 ± 0.042
UAGCGA | 1.921 ± 0.018 | 2.035 ± 0.019
CACCAC | 1.998 ± 0.019 | 1.99 ± 0.026
CACCAG | 1.977 ± 0.019 | 2 ± 0.036
CACCAA | 1.97 ± 0.016 | 1.99 ± 0.022
GACCAC | 2.001 ± 0.012 | 2.002 ± 0.0054
GACCAG | 2.004 ± 0.013 | 2.022 ± 0.012
GACCAU | 2.017 ± 0.0083 | 2.01 ± 0.027
CACGUG | 2.03 ± 0.022 | 2.05 ± 0.05
CACGUU | 2.0092 ± 0.00093 | 1.99 ± 0.038
CACGUC | 2.023 ± 0.0096 | 1.987 ± 0.013

Variant | normalized RNA/DNA level without ligand (log10) ((6R,S)-folinic acid [1]) | normalized RNA/DNA level with ligand (log10) ((6R,S)-folinic acid [2])
UACUAG | 1.828 ± 0.016 | 1.99 ± 0.031
UACUAA | 1.973 ± 0.0021 | 2.02 ± 0.0061
UACUAC | 2.022 ± 0.0093 | 2.011 ± 0.0087
AAGACU | 2.01 ± 0.0024 | 2.02 ± 0.04
AAGACC | 2.03 ± 0.033 | 2.03 ± 0.03
CACGGA | 1.99 ± 0.038 | 2.02 ± 0.029
CACGGG | 1.91 ± 0.0032 | 1.992 ± 0.0038
CACGGC | 2.046 ± 0.014 | 2.03 ± 0.026
CACGGU | 1.954 ± 0.0088 | 1.95 ± 0.04
CACCUC | 2.02 ± 0.021 | 1.99 ± 0.027
CACCUG | 2.04 ± 0.023 | 2.02 ± 0.022
CACCUU | 2.027 ± 0.0059 | 2.01 ± 0.025
CACCUA | 2.024 ± 0.005 | 2.06 ± 0.038
UAGAGU | 1.855 ± 0.011 | 1.992 ± 0.016
AAGCCG | 1.988 ± 0.0067 | 2.01 ± 0.041
AAGCCA | 2.009 ± 0.0029 | 2.03 ± 0.022
AAGCCC | 2.0608 ± 0.0014 | 2.04 ± 0.039
CAGCCC | 2.077 ± 0.02 | 2.027 ± 0.013
CAGCCA | 1.9832 ± 0.0011 | 2.01 ± 0.063
CAGCCG | 2.044 ± 0.0032 | 2.053 ± 0.019

Variant | normalized RNA/DNA level without ligand (log10) ((6R,S)-folinic acid [1]) | normalized RNA/DNA level with ligand (log10) ((6R,S)-folinic acid [2])
UACGCG | 1.79 ± 0.03 | 1.98 ± 0.058
UACGCC | 2.053 ± 0.0091 | 2.07 ± 0.022
UACGCA | 1.992 ± 0.013 | 2.03 ± 0.037
UACGCU | 2.0313 ± 0.00036 | 2.043 ± 0.0085
CACUGU | 2.057 ± 0.0081 | 2.056 ± 0.011
CACUGC | 2.057 ± 0.016 | 2.05 ± 0.032
CACUAC | 2.0166 ± 0.00023 | 2.01 ± 0.074
CACUAA | 1.961 ± 0.01 | 2.0172 ± 0.0006
CACUAG | 1.949 ± 0.01 | 2.02 ± 0.034
CACUAU | 1.962 ± 0.0042 | 2.01 ± 0.03
AACGCG | 1.909 ± 0.012 | 2.03 ± 0.026
GACUCA | 2.004 ± 0.0082 | 1.98 ± 0.028
GACUCU | 2.033 ± 0.0069 | 2 ± 0.066
GACUCG | 2.0319 ± 0.0013 | 2.05 ± 0.032
GACACG | 1.971 ± 0.019 | 1.98 ± 0.034
GACACC | 2.026 ± 0.0065 | 1.98 ± 0.038
GACACU | 2.032 ± 0.015 | 2.046 ± 0.018
GACUGA | 2.03 ± 0.02 | 2 ± 0.025
